Measured values: patent US20050002950

Columns and labels:
[1] = target: purified complement component C3
[2] = target: T1, purified human fibrinogen, depleted of fibronectin and plasminogen, P02671
T1 chain 1: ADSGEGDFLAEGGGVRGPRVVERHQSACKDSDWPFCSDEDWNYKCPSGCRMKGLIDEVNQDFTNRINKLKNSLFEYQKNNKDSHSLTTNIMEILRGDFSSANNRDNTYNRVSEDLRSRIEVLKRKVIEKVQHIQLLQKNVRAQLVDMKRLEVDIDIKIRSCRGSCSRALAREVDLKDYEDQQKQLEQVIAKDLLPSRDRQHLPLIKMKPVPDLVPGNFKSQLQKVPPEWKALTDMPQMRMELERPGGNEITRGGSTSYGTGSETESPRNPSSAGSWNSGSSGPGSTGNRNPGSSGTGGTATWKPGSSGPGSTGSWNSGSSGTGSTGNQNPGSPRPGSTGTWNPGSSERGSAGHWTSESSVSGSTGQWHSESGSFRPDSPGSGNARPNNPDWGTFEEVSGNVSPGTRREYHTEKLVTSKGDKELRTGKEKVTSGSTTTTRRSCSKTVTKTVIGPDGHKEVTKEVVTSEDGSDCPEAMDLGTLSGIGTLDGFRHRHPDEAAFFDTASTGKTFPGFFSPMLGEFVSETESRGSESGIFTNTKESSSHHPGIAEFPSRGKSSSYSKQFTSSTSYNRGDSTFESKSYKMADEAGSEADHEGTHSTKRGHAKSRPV
T1 chain 2: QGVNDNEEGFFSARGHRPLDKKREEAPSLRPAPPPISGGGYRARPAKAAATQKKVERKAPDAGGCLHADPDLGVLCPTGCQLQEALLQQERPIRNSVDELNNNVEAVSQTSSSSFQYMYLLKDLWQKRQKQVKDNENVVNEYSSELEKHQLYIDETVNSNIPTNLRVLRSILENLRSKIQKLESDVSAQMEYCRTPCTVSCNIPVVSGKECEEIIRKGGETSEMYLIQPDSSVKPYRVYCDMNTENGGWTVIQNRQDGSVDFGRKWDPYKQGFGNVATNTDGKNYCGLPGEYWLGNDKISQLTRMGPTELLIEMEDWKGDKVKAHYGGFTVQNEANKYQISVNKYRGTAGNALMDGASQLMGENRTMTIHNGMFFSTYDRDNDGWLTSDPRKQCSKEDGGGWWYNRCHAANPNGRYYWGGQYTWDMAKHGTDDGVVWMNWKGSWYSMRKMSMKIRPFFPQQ
T1 chain 3: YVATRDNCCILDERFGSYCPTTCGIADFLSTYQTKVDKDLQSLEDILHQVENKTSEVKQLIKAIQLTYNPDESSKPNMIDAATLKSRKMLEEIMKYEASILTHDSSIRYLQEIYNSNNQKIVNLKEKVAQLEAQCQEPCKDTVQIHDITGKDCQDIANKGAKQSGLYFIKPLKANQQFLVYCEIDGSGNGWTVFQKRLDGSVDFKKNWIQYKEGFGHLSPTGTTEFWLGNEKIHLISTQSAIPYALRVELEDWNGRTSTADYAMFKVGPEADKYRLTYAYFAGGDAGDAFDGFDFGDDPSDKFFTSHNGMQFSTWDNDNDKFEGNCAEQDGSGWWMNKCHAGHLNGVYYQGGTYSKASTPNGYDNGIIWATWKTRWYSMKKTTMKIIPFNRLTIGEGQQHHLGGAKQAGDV

[3] = target: purified human fibronectin, P02751
[4] = target: T2, recombinant human C5a, P01031
T2 chain: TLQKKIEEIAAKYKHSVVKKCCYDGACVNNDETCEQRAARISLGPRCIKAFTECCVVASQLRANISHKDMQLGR

Sequence of purified human fibronectin, P02751 (P02751 other isoform, or with tags, fused parts or gaps): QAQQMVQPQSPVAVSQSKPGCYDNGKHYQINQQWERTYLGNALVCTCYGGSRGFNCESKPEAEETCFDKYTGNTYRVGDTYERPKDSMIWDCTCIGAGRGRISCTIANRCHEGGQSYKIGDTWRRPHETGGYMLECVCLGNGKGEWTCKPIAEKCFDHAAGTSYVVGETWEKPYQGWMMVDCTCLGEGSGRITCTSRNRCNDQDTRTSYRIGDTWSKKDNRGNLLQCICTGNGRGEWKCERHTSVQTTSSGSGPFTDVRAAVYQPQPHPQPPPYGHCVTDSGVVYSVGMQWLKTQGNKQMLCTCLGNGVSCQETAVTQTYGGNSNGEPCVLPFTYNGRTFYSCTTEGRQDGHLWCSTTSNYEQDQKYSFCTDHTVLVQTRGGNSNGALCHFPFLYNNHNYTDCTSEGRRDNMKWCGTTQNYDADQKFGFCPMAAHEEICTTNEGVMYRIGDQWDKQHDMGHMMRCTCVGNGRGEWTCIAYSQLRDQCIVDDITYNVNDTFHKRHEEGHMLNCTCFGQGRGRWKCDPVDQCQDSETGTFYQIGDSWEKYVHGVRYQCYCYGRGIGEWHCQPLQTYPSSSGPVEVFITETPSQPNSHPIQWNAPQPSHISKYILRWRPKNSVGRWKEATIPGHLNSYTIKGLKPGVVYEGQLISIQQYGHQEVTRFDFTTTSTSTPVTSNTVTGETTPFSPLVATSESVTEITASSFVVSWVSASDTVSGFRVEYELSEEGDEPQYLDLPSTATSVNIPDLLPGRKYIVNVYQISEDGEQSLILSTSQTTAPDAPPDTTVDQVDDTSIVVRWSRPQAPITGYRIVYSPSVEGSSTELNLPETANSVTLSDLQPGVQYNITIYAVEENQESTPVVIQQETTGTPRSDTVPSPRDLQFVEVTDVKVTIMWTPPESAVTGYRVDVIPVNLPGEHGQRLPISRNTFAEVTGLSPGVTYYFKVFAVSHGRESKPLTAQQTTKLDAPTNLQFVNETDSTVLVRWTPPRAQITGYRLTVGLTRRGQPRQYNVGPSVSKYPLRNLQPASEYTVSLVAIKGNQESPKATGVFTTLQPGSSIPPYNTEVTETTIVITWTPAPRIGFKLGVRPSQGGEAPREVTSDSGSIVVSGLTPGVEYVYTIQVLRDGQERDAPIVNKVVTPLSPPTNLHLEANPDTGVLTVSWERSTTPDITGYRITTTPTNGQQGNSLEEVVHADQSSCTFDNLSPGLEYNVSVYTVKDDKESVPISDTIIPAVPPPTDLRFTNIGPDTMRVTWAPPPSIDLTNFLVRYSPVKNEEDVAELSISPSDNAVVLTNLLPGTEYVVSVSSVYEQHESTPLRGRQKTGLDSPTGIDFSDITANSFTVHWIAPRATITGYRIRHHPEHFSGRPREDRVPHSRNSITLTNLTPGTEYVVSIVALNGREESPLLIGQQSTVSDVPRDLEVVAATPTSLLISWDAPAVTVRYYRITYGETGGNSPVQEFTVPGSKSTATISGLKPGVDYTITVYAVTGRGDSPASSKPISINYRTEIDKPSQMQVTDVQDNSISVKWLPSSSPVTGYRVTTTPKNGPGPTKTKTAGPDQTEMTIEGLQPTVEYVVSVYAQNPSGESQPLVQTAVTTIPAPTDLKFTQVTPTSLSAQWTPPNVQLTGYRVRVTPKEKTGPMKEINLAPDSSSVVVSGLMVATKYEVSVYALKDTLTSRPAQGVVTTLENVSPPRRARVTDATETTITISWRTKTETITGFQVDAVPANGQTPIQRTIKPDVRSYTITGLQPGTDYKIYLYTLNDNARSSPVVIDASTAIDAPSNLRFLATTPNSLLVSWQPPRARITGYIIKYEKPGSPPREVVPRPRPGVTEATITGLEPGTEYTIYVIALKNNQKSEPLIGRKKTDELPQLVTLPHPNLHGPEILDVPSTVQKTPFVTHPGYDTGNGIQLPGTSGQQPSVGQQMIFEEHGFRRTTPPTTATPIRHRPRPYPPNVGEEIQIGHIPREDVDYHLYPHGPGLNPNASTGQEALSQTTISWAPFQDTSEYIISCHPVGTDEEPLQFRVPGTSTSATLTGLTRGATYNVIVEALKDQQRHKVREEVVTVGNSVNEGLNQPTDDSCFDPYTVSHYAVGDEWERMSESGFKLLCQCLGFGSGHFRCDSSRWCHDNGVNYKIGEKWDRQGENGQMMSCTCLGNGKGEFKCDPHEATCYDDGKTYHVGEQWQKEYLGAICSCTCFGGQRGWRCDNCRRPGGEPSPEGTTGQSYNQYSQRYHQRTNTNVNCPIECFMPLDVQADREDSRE

B1: CspA on whole cells of GBS strain COH1 (compared with the cspA mutant TOH121) (protein)
chain: DSVINKPSDIAVEQQVKDSPTSIANETPTNNTSSALASTAQDNLVTKANNNSPTETQPVTEPHSQATETFSPAANQPVESTQEVSKTPLTKQNLAVKPTPAISKETPQNIDSNKIITVPKVWNTGYKGEGTVVAIIDSGLDTNHDALQLNDSTKAKYQNEQQMNAAKAKAGINYGKWYNNKVIFGHNYVDVNTELKEVKSTSHGMHVTSIATANPSKKDTNELIYGVAPEAQVMFMRVFSDEKRGTGPALYVKAIEDAVKLGADSINLSLGGANGSLVNADDRLIKALEMARLAGVSVVIAAGNDGTFGSGASKPSALYPDYGLVGSPSTAREAISVASYNNTTLVNKVFNIIGLENNKNLNNGLAAYADPKVSDKTFEVGKQYDYVFVGKGNDNDYKDKTLNGKIALIERGDITFTKKVVNAINHGAVGAIIFNNKAGEANLTMSLDPEASAIPAIFTQKEFGDVLAKNNYKIVFNNIKNKQANPNAGVLSDFSSWGLTADGQLKPDLSAPGGSIYAAINDNEYDMMSGTSMASPHVAGATALVKQYLLKEHPELKKGDIERTVKYLLMSTAKAHLNKDTGAYTSPRQQGAGIIDVAAAVQTGLYLTGGENNYGSVTLGNIKDKISFDVTVHNINKVAKDLHYTTYLNTDQVKDGFVTLAPQQLGTFTGKTIRIEPGQTKTITIDIDVSKYHDMLKKVMPNGYFLEGYVRFTDPVDGGEVLSIPYVGFKGEFQNLEVLEKSIYKLVANKEKGFYFQPKQTNEVPGSEDYTALMTTSSEPIYSTDGTSPIQLKALGSYKSIDGKWILQLEQKGQPHLAISPNDDQNQDAVALKGVFLRNFNNLRAKVYRADDVNLQKPLWVSAPQAGDKNYYSGNTENPKSTFLYDTEWKGTTTDGIPLEDGKYKYVLTYYSDVPGSKPQQMVFDITLDRQAPTLTTATYDKDRRIFKARPAVEHGESGIFREQVFYLKKDKDGHYNSVLRQKGEDGILVEDNKVFIKQEKDGSFILPKEVNDFSHVYYTVEDYAGNLVSAKLEDLINIGNKNGLVNVKVFSPELNSNVDIDFSYSVKDDKGNVIKKQHHGKDLNLLKLPFGTYTFDLFLYDEERANLISPQSVTVTISEKDSLKDVLFKVNLLKKAALLVEFDKLLPKGATVQLVTKTNTVVDLPKATYSPTDYGKNIPVGDYRLNVTLPSGYSTLENLDDLLVSVKEGQVNLTKLTLINKAPLINALAEQTDIISQPVFYNAGTHLKNNYLANLEKAQTLIKNRVEQTSIDNAIAALRESRQALNGKETDTSLLAKAILAETEIKGNYQFVNASPLSQSTYINQVQLAKNLLQKPNVTQSEVDKALENLDIAKNQLNGHETDYSGLHHMIIKANVLKQTSSKYQNASQFAKENYNNLIKKAELLLSNRQATQAQVEELLNQIKATEQELDGRDRVSSAENYSQSLNDNDSLNTTPINPPNQPQALIFKKGMTKESEVAQKRVLGVTSQTDNQKIKTNKLPKTGESTPKITYTILLFSLSMLGLATIKLKSIKRE
B1 was tested, and the “degradation of the test substrate (Coomassie-stained SDS-PAGE or Western blotting)” value [1] was “No difference in the cleavage of the test substrates was observed for all substrates except fibrinogen when the mutant and wild-type strains were compared”, the “fibrinogen degradation assay (SDS-PAGE of supernatant after 16 h with whole GBS)” value [2] was “COH1 cleaved the minor species (corresponding to the lower band of the doublet) of the α subunit, while the mutant did not cleave fibrinogen under the conditions employed” and the “degradation of the test substrate (Coomassie-stained SDS-PAGE or Western blotting)” value [3] was “No difference in the cleavage of the test substrates was observed for all substrates except fibrinogen when the mutant and wild-type strains were compared”. The “C5a protease activity (C5a-stimulated PMN adherence to gelatin-coated plastic after preincubating C5a with GBS)” value [4] was “inactivation of CspA did not appear to have a detectable effect on C5a activity”.
